Data on one molecule can be found in publication PMC9375587.

The assay deals with Myeloperoxidase (MPO), native, dimeric (human) (UniProt P05164). The assay can be described thus: SPR. (In general: SPR reads the build-up and loss of mass on a sensor chip optically.)

B1: Ceruloplasmin (CP), intact (non-proteolyzed) (natural protein)
chain: KEKHYYIGIIETTWDYASDHGEKKLISVDTEHSNIYLQNGPDRIGRLYKKALYLQYTDETFRTTIEKPVWLGFLGPIIKAETGDKVYVHLKNLASRPYTFHSHGITYYKEHEGAIYPDNTTDFQRADDKVYPGEQYTYMLLATEEQSPGEGDGNCVTRIYHSHIDAPKDIASGLIGPLIICKKDSLDKEKEKHIDREFVVMFSVVDENFSWYLEDNIKTYCSEPEKVDKDNEDFQESNRMYSVNGYTFGSLPGLSMCAEDRVKWYLFGMGNEVDVHAAFFHGQALTNKNYRIDTINLFPATLFDAYMVAQNPGEWMLSCQNLNHLKAGLQAFFQVQECNKSSSKDNIRGKHVRHYYIAAEEIIWNYAPSGIDIFTKENLTAPGSDSAVFFEQGTTRIGGSYKKLVYREYTDASFTNRKERGPEEEHLGILGPVIWAEVGDTIRVTFHNKGAYPLSIEPIGVRFNKNNEGTYYSPNYNPQSRSVPPSASHVAPTETFTYEWTVPKEVGPTNADPVCLAKMYYSAVEPTKDIFTGLIGPMKICKKGSLHANGRQKDVDKEFYLFPTVFDENESLLLEDNIRMFTTAPDQVDKEDEDFQESNKMHSMNGFMYGNQPGLTMCKGDSVVWYLFSAGNEADVHGIYFSGNTYLWRGERRDTANLFPQTSLTLHMWPDTEGTFNVECLTTDHYTGGMKQKYTVNQCRRQSEDSTFYLGERTYYIAAVEVEWDYSPQREWEKELHHLQEQNVSNAFLDKGEFYIGSKYKKVVYRQYTDSTFRVPVERKAEEEHLGILGPQLHADVGDKVKIIFKNMATRPYSIHAHGVQTESSTVTPTLPGETLTYVWKIPERSGAGTEDSACIPWAYYSTVDQVKDLYSGLIGPLIVCRRPYLKVFNPRRKLEFALLFLVFDENESWYLDDNIKTYSDHPEKVNKDDEEFIESNKMHAINGRMFGNLQGLTMHVGDEVNWYLMGMGNEIDLHTVHFHGHSFQYKHRGVYSSDVFDIFPGTYQTLEMFPRTPGIWLLHCHVTDHIHAGMETTYTVLQNEDTKSG
What is called Kd is the constant that tells how readily two partners part at equilibrium. A high value points to weaker binding. Usually koff stands for the rate constant with which the complex falls apart. A lower koff goes with slow dissociation. One may read the kon as the rate constant with which the complex forms. Read a high kon as fast association. On to B1, for which the dissociation constant Kd was 436 nM, the koff stood at 0.503 s⁻¹ and the kon came out at 11500 M⁻¹ s⁻¹.
